Source: US20170224778A1, “COMPOSITIONS AND METHODS THAT TARGET REGULATION OF BREATHING” (The Board of Trustees of the Leland Stanford Junior …, priority 2016, published 2017)
One block for each substance: values may come before it.

How the values were obtained:
[1] = molecular target: gastrin-releasing peptide receptor (GRPR) on rat preBotC neurons (rat) (UniProt P52500)
[2] = molecular target: neuromedin B receptor (NMBR) on rat preBotC neurons (rat) (UniProt P24053)
[3] = molecular target: gastrin-releasing peptide receptor (GRPR) on rat preBotC neurons (rat) (UniProt P52500); remark: listed apart in the source
[4] = molecular target: neuromedin B receptor (NMBR) on rat preBotC neurons (rat) (UniProt P24053); remark: listed apart in the source
[5] = molecular target: gastrin-releasing peptide receptor (GRPR) on rat preBotC neurons (rat) (UniProt P52500); remark: listed apart in the source
[6] = molecular target: neuromedin B receptor (NMBR) on rat preBotC neurons (rat) (UniProt P24053); remark: listed apart in the source
[7] = molecular target: gastrin-releasing peptide receptor (GRPR) on mouse preBotC neurons (mouse) (UniProt P21729)
[8] = molecular target: neuromedin B receptor (NMBR) on mouse preBotC neurons (mouse) (UniProt O54799)
NMBR [9] = molecular target: T1, NMBR (Rattus norvegicus, UniProt P24053); assay: Sighing and breathing of urethane-anesthetized rats after bilateral preBötC injection (NMB pathway); assay type: in vivo; conditions: 3 μM into preBötC
T1 construct: from tissue; host or cells: preBötC of the ventral medulla of living anesthetized Sprague Dawley rats
T1 sequence (P24053 1-390): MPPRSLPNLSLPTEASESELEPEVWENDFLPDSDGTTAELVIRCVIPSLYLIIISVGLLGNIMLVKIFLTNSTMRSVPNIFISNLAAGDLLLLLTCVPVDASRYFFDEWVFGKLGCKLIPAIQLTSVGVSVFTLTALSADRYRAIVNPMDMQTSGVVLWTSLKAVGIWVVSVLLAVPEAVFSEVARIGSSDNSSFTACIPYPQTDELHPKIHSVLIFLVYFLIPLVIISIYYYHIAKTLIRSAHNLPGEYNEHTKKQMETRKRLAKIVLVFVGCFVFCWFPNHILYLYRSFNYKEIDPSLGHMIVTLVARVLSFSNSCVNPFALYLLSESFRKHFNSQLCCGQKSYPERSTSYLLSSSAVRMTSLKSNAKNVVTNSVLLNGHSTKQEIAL
Description: Sigh monitoring and analysis. For awake animals, individual animals were placed in a whole body plethysmography chamber (Buxco) at room temperature (22° C.) in 21% O2 (for normoxia) or 8% O2 (for hypoxic challenge) balanced with N2. Sighs were identified in plethysmography traces by the characteristic biphasic ramp, the augmented flow in the second phase of the inspiratory effort and the prolongation of expiratory time following the event. Sighs were also confirmed by visual monitoring of breathing behavior. Given the high amplitude and distinctive waveform of sighs relative to standard eupneic breaths, sighs were unambiguously identified by both visual and computer-assisted scoring; no difference was detected in direct comparisons between methods or observers so visual scoring was used. Female 8 week old mice (Nmbr^−/−, Grpr^−/−, or C57BL/6 as wild type control) were allowed to acclimate for 10 minutes in the chamber, and then the first fifteen recorded sighs were used to calculate the sigh rate. […] Rats were allowed to acclimate in the chamber for ˜1 hr, and then baseline sigh rate and respiratory frequency were calculated for the next 2 hrs. For hypoxic (8% O2) challenge, analysis was continued for 30 minutes under the hypoxic condition. For anesthetized rats, the trachea was cannulated and connected to a pneumotachograph (GM Instruments) to record airflow. A flow calibration was performed after every experiment along with a calculation of tidal volume (VT) by digital integration. To monitor diaphragm activity, wire electrodes (Cooner Wre) were implanted into the diaphragm and electromyogram (EMG) signal sampled at 2 kHz (Powerlab 16SP; AD Instruments). Signal was rectified and digitally integrated (time constant of 0.1) to obtain a moving average using LabChart Pro 8 (AD Instruments) and Igor Pro 6 (Data Matrix) software. Sighs were identified in the airflow measurements as above and validated by double peaks in the EMG recordings.
PreBötC injection of NMB and GRP agonists and antagonists. […]

NMBR [10] = molecular target: T2, NMBR (Mus musculus, UniProt O54799); assay: Doublets (in vitro sigh signature) in explanted preBötC brain slices, NMB effect; assay type: cell-based; conditions: for doublet frequency increase: neonatal mouse preBötC slices
T2 construct: from tissue; host or cells: 550-μm transverse medullary slices with the preBötC, neonatal C57BL/6 mice (P0-5)
T2 sequence (O54799 1-390): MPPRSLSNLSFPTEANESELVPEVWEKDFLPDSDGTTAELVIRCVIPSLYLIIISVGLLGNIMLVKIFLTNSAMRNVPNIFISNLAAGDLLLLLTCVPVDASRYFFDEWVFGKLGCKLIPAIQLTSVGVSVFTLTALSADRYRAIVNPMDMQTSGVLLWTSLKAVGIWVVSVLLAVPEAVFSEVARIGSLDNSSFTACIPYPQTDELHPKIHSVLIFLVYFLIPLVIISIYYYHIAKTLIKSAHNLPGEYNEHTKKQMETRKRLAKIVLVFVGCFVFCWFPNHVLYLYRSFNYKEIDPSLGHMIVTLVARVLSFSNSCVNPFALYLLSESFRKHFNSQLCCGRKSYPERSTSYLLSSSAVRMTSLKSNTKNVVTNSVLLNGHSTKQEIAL
Description: In vitro slice preparation, recording, and analysis. Rhythmic 550-μm-thick transverse medullary slices containing the preBötC and XII nerve from neonatal C57BL/6 mice (P0-5) were prepared as described previously (Kam et al., 2013). The medullary slice was cut in artificial cerebrospinal fluid (ACSF) containing (in mM): 124 NaCl, 3 KCl, 1.5 CaCl2, 1 MgSO4, 25 NaHCO3, 0.5 NaH2PO4, and 30 D-glucose, equilibrated with 95% O2 and 5% CO2 (4° C., pH=7.4). For recording, extracellular K+ was raised to 9 mM to replace excitatory afferent drive lost in the cutting process. Slices were perfused at 27° C. and 4 ml/min and allowed to equilibrate for 30 minutes. Respiratory activity reflecting suprathreshold action potential (AP) firing from populations of neurons was recorded as XII bursts from either XII nerve roots and as population activity directly from the preBötC using suction electrodes and a MultiClamp 700A or 700B (Molecular Devices, Sunnyvale, Calif., USA), filtered at 2-4 kHz and digitized at 10 kHz. Digitized data were analyzed off-line using custom procedures written for IgorPro (Wavemetrics, Portland, Oreg., USA). Activity was full-wave rectified and digitally integrated with a Paynter filter with a time constant of 20 ms with either custom built electronics or using custom procedures in MATLAB (Mathworks, Natick, Mass., USA). Burst detection and analysis of respiratory-related activity recorded in full-wave rectified XII output or preBötC population recordings were performed using custom software written in IgorPro. Burst parameters were normalized to the mode of the data in the baseline condition. Although there are several proposed definitions of sighs in slice preparations, here we used “doublets” (double-peaked bursts) as the in vitro signature of sighs because, in our preparations, doublets detected both in preBötC neural population activity measurements and cranial nerve XII output recordings shared the increased inspiratory and expiratory duration of sighs. […] All doublets were verified by visual inspection to exclude multipeaked bursts and two bursts that were too far apart. Measured doublet intervals were converted to a calculated per hour doublet rate.

Substance: bombesin-saporin (saporin conjugated with bombesin)
- basal sigh rate after ablation of receptor-expressing preBotC neurons in rats [3]: 95%
- basal sigh rate after ablation of receptor-expressing preBotC neurons in rats [4]: 95%
- hypoxia-induced sigh rate (8% O2) five days after injection in rats [5]: 5.1 h⁻¹
- hypoxia-induced sigh rate (8% O2) five days after injection in rats [6]: 5.1 h⁻¹

Substance: neuromedin B [NMB]
- change in respiratory rate (frequency, f) (NMBR [9]; bilateral NMB injection 100 nl, anesthetized rat): little change
- sighing increased (fold) (NMBR [9]; bilateral microinjection 100 nl, anesthetized adult rats, n=5): 6-17 fold
- effect on sighing persisted after injection (NMBR [9]; bilateral microinjection 100 nl, effect peaked several minutes after injection): 10 to 15 min
- doublet frequency increase (NMBR [10]; 10 nM, p=0.005, n=7): 1.7 fold
- doublet frequency increase (NMBR [10]; 30 nM, p=0.003, n=7): 2 fold
- overall frequency of bursts and doublets together (NMBR [10]; NMB on preBötC slices, p=0.2, n=7): unchanged
- fraction of total events that are doublets (NMBR [10]; preBötC slice, p<0.05, n=7): increasing
- interval following a doublet (NMBR [10]; preBötC slice, p<0.05, n=7): decreasing

Substance: saporin conjugated with a non-targeted peptide (blank SAP)
- basal and hypoxia-induced sigh rate in control rats [5]: 140 h⁻¹
- basal and hypoxia-induced sigh rate in control rats [6]: 140 h⁻¹

Now from value to substance:

- basal sigh rate after bilateral preBotC injection in anesthetized rats [1]: 50%
Substance: GRPR antagonist RC3095

- basal sigh rate after bilateral preBotC injection in anesthetized rats [2]: 50%
Substance: NMBR antagonist BIM23042

- doublets (in vitro signature of a sigh) in mouse preBotC slices [7]: 1.7 fold
Substance: gastrin releasing peptide (GRP) neuropeptide

- doublet frequency (in vitro signature of a sigh) in mouse preBotC slices [8]: 2 fold
Substance: neuromedin B (NMB) neuropeptide
